Assay results published in patent publication US20260274910A1, “SINGLE FUSION PROTEIN AND PHARMACEUTICAL COMPOSITION” (MEDI&GENE INC., priority 2023, published 2026).

B1: His tag Human ATPIF1 (protein)
chain: MGSHHHHHHSSGLVPRGSHMGSDQSENVDRGAGSIREAGGAFGKREQAEEERYFRAQSREQLAALKKHHEEEIVHHKKEIERLQKEIERHKQKIKMLKHDD
notes: Recombinant protein: His tag-wild-type substance (1-81), control group
B2: Human ATPIF1 (peptide, listed as Homo sapiens)
chain: GSDQSENVDRGAGSIREAGGAFGKREQAEEERYFRAQSREQLAALKKHHEEEIVHHKKEIERLQKEIERHKQKIKMLKHDD

What was measured:
[1] = tested on: follicular cells (dermal papilla cells); test: Follicular cell proliferation by MTT assay; format: cell-based; conditions: 100 nM, 24 hours; compared with Control (PBS)
Experimental: Whether the test substances of the present invention has effects on preventing hair loss or promoting hair growth was evaluated as follows. Specifically, it was observed whether they have efficacy of improving loss of follicular cells in scalp tissue which is a cause of hair loss, or hair growth due to an increase in hair follicles, by using dermal papilla cells and evaluating cell proliferation of follicular cells.
The follicular cells were treated with each test substance 100 nM (control: PBS) for 24 hours, and the degree of cell proliferation was evaluated by MTT assay.

plasma proteins = test: Plasma protein binding test (PPB); format: in vitro ADME, mice; conditions: mouse plasma, 5 uM, 37° C., 4 hours, 100 kD filter, western blot
Experimental: Such an increase in half-life was further confirmed by measuring plasma protein binding rates (Plasma protein binding test, PPB). […] Each of the plasma of the mice and the fusion protein (SEQ ID NO: 13), and or His tag-wild-type substance (1-81) (SEQ ID NO: 5) was incubated at a concentration of 5 uM at 37° C. for 4 hours. After that, they were centrifuged with a 100 kD filter to obtain fractions of the substance bound to the plasma proteins or fractions of the unbound substance. Each of the obtained fractions was evaluated by western blot.

[2] = tested on: Akt and S6 (phosphorylation, p-Akt/p-S6) in C2C12 mouse skeletal muscle cell line; test: Akt and S6 phosphorylation (western blot) in C2C12 muscle cells; format: cell-based; conditions: 2 hours
Experimental: In order to evaluate functions related to muscle loss diseases, each test substance was treated to the undifferentiated C2C12 mouse skeletal muscle cell line (mouse myoblast cell line) or the cell line in which differentiation into myotubes was completed. Differentiation of the cell line into myotubes was performed by conducting addition of 2% horse serum to culture medium and replacement with new medium every two days for a total of 4 days.
To the undifferentiated or differentiated cell lines, the test substances, fusion proteins (SEQ ID NOs: 1, 2, 3, 7, 14 and 15) were treated at a concentration of 100 nM (Control: PBS treated group) for 2 hours. Thereafter, the cells were immediately washed once and the cells were lysed with RIPA buffer (Radioimmunoprecipitation assay buffer). The activity of Akt and S6 (phosphorylation, p-Akt/p-S6) was observed by western blot. Akt phosphorylation is a well-known marker of activation of cell signaling pathways, and is an indicator of beneficial effects on muscle cells such as promotion of glucose metabolism and promotion of muscle biosynthesis. Similarly, S6 phosphorylation is a well-known marker of mTOR activity, and the activity of mTOR is an indicator showing muscle biosynthesis and various cell signaling pathways.

3T3-L1 adipocytes = test: Lipid droplet analysis (BODIPY 493/503, confocal) in 3T3-L1 adipocytes; format: cell-based, mouse; conditions: differentiated 3T3-L1 adipocytes, 100 nM, 30 hours
Experimental: To observe the functionality of the fusion proteins related to lipid metabolism, the 3T3-L1 mouse pre-adipocyte cell line was used as the cell line itself (undifferentiated) or by differentiating into adipocytes. Differentiation into the adipocytes was performed by inducing primary differentiation for the 3T3-L1 cells in a medium containing DMEM, 10% FBS, 10 μg/ml insulin, 0.5 mM IBMX (3-Isobutyl-1-methylxanthine), and 1 μM dexamethasone for 2 days, and inducing secondary differentiation with a medium containing DMEM, 10% FBS, and 10 μg/ml insulin for the remaining 4 days. The adipocytes in which differentiation was finally completed were treated with the test substances at a concentration of 100 nM for 30 hours (Control: PBS) and then used for each test.
In addition, lipid droplets of adipocytes were stained with BODIPY 493/503 dye sample, and then confocal image scanning was performed to analyze the size and diameter of the lipid droplets.

[3] = mouse, in vivo, 2.5 mg/kg
Experimental: For evaluation, ten-week-old C57BL/6 mice were used, and the mice were reared in a specialized animal facility which provided a normal diet and a 12/12 hour night/day cycle and then used for experimentation.
The synthetic peptide (SEQ ID NO: 8) and fusion protein (SEQ ID NO: 13) were each injected into the mice at a concentration of 2.5 mg/kg, and blood was collected at 0, 0.5, 2, 4, 24 hours after injection. The collected blood was centrifuged and the obtained plasma was analyzed. At this time, in order to perform effective quantification of the substances, each substance was conjugated with Dylight 680 Near-Infrared dye (NIR) in advance prior to injection, and the finally collected blood samples were examined by observing fluorescent signals with a SpectraMax i3 microplate reader device.

[4] = C2C12 differentiated into myotubes, 100 nM, control PBS
[5] = Table 6, C2C12, 100 nM, differentiation state not given
[6] = undifferentiated C2C12, 100 nM, control PBS

| Molecule | Cell viability (MTT, cell proliferation) [1] | Binding rate with the plasma proteins (plasma proteins) | Activity (% increase compared to control) Differentiated Akt [2, 4] | Activity (% increase compared to control) Differentiated S6 [2, 4] | Activity (% increase compared to control) Akt [2, 5] | Activity (% increase compared to control) S6 [2, 5] | Activity (% increase compared to control) Undifferentiated Akt [2, 6] | Activity (% increase compared to control) Undifferentiated S6 [2, 6] | Lipid droplet size (3T3-L1 adipocytes) | Maximum lipid droplet diameter per cell (3T3-L1 adipocytes) | Total lipid droplet area (3T3-L1 adipocytes) | Half-life [3] |
| --- | --- | --- | --- | --- | --- | --- | --- | --- | --- | --- | --- | --- |
| B1 | significantly increased | 5% | 248% | 262% | 254% | 217% | 165% | 207% |  |  |  |  |
| B2 |  |  |  |  |  |  |  |  | reduced at a significant level | reduced at a significant level | reduced at a significant level | 1.6 h |
